Measured values from US8586034B2, “Cytomegalovirus disintegrin-like peptides” (priority 2004, dated 2013).

Columns and labels:
[1] = biological target: Normal human dermal fibroblasts; assay: Protein binding assay, gBDLD to fibroblasts (His-tag ELISA)
Method: Normal human dermal fibroblasts were chilled to 4° C., washed three times with cold MES buffer and blocked with 1 mg/mL bovine serum albumin (BSA) for 30 minutes at 4° C. Unbound BSA was removed with cold MES washes (×4). The indicated amounts of gBDLD were added to each well for 90 minutes at 4° C. Cells were then washed three times with cold MES, twice with cold (phosphate-buffered saline (PBS) and fixed with 3% paraformaldehyde. An ELISA was then performed probing with anti-His rabbit polyclonal antibody (Santa Cruz Biotechnology, Santa Cruz, Calif.) and anti-rabbit HRP (Pierce). Absorbance was measured at 405 nm.
FIG. 7 is a graph depicting the results of a gBDLD binding assay (performed as described previously). Here, binding was measured by absorbance at 405 nm. […] To generate the data, human fibroblasts were incubated with gBDLD for the indicated times at 4° C. Cells were then washed, fixed and an ELISA was performed probing for the gBDLD […] his-tag. […]
FIG. 8 is a graph depicting gBDLD binding to human fibroblasts. As is readily apparent from FIG. 8, this binding is dose-dependent and saturable. […] After three IVIES washes and two PBS washes, cells were fixed in 3% paraformaldehyde and a His-tag ELISA was performed to quantitate gBDLD bound to cells.

HCMV-GFP = assay: HCMV infectivity assay (HCMV-GFP, flow cytometry); format: cell-based, Human cytomegalovirus; conditions: human fibroblasts
Method: NHDFs were washed three times with MES buffer followed by the addition of gBDLD for 60 minutes at 37° C. Cells were then washed twice with MES buffer, three times with PBS and inoculated with HCMV-GFP (MOI=0.5) in serum-free DMEM. After 60 minutes, virus was removed and a 30 second, low-pH citrate wash was performed to remove extracellular virus. Twenty-four hour, post-infection cells were harvested and flow cytometry was performed to assay for GFP-positive cells.
FIG. 9 is a graph depicting the results of an assay to determine if gBDLD blocks NHDF cells from infection with HCMV. The infectivity assay was performed as described in the earlier examples. Briefly, gBDLD or BSA was added to human fibroblasts for 60 minutes. Cells were then washed, followed by HCMV-GFP challenge for 60 minutes. Cells were then citrate washed to remove any extracellular virus and incubated overnight. Flow cytometry was performed to assay for GFP positive versus total cells. As is readily observed from FIG. 9, gBDLD exerts a dose-dependent inhibition of HCMV infectivity in the cells tested.

diI-labeled HCMV = format: cell-based, Human cytomegalovirus; conditions: gBDLD or BSA 320 μg/mL, soluble heparin 50 μg/mL; 24 hours post-infection
β1 integrin = biological target: T1, β1 integrin (Homo sapiens, UniProt P05556); assay: Integrin co-immunoprecipitation assay, β1; format: binding; conditions: human fibroblast lysates, nickel beads
T1 construct: endogenous in cells; host or cells: Normal Human Dermal Fibroblasts (NHDF), detergent lysate
T1 sequence (P05556 21-798): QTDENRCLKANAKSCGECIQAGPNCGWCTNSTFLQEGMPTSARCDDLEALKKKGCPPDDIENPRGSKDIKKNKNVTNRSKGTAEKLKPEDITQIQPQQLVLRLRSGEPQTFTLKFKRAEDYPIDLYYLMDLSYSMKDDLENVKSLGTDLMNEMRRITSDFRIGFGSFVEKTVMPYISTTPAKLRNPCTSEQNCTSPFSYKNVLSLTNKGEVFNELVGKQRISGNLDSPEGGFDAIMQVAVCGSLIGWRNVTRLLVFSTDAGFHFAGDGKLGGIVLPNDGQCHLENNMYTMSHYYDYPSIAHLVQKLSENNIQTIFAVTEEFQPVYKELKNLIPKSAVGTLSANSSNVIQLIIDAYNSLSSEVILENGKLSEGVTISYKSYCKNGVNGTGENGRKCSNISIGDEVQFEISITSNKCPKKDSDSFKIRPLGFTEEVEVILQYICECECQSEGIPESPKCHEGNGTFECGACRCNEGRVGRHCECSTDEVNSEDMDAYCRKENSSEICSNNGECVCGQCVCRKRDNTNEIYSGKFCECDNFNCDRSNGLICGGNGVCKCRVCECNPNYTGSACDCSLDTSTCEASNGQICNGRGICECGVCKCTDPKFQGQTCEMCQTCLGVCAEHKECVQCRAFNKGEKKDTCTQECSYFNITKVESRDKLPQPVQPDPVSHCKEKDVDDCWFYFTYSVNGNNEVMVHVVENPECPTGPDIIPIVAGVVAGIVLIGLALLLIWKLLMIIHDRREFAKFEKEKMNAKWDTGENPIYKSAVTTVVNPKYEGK
Method: (§1) A T-175 flask of NHDFs was grown to complete confluence, washed three times in MES buffer and lysed in 1 mL MES buffer+1% TX-100 (a detergent). Lysate was spun at 10,000 g for 10 minutes to remove cell debris. Cell lysate (350 μL) was then incubated with 20 μg gBDLD for 4 hours at 4° C. The lysate+gBDLD mixture was then incubated with 50 μL Ni beads overnight at 4° C. Nickel beads were then washed three times and protein eluted by boiling and then adding reducing SDS-PAGE buffer. Proteins were separated by SDS-PAGE and Western blotted for β1 integrin (Chemicon-1965) or β3 (Chemicon) as previously described.^48
(§2) To identify the cellular receptor for gBDLD we performed co-immunoprecipitation studies. Briefly, gBDLD was incubated with human fibroblast lysates and pulled down with nickel-conjugated agarose beads.
(§3) Because gBDLD contains a known β1 integrin binding motif, gBDLD bound to its cellular receptor was isolated by SDS-PAGE and then Western blotted for either β1 or β3 integrin. The resulting gels are shown in FIG. 10 (β1) and FIG. 11 (β3).

β3 integrin = biological target: T2, β3 integrin (Homo sapiens, UniProt P05106); assay: Integrin co-immunoprecipitation assay, β3; format: binding; conditions: human fibroblast lysates, nickel beads
T2 construct: endogenous in cells; host or cells: Normal Human Dermal Fibroblasts (NHDF), detergent lysate
T2 sequence (P05106 27-788): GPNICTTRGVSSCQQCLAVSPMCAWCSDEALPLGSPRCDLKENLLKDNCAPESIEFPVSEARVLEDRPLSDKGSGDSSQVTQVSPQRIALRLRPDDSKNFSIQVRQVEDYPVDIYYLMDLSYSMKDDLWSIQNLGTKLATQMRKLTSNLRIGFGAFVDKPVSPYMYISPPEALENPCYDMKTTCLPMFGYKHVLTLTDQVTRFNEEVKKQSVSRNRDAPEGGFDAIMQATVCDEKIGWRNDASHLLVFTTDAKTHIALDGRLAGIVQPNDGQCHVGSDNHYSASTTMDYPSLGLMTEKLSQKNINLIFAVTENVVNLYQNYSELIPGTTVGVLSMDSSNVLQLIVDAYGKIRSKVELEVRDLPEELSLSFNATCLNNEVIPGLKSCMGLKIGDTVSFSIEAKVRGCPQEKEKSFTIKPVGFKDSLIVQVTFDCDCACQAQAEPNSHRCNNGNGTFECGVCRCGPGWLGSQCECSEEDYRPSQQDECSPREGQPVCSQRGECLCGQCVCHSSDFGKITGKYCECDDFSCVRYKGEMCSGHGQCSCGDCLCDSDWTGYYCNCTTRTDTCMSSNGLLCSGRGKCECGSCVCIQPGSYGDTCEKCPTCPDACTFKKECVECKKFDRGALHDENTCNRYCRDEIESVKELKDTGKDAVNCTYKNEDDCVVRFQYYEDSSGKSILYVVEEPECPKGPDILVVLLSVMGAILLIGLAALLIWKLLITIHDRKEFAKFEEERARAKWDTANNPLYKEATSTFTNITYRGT
Method: as §1, §2, §3

NHDF cells = assay: Cytoskeletal rearrangement, actin staining with phalloidin; format: cell-based, human; conditions: compared to buffer alone
Description: β1 integrins are known inducers of broad signal transduction events. […] To test the role of gBDLD in mediating signaling events, we stimulated NHDF cells with buffer alone, gBDLD, or a known cytoskeletal reorganizer (EGF), followed by actin staining with phalloidin.

[2] = Solubility of purified gBDLD in dialysis buffer; format: physicochemical; conditions: 55 mM MES, pH 5.5, 300 mM NaCl
Method: DNA sequence corresponding to amino acids 57-146 of HCMV AD 169 glycoprotein B disintegrin-like domain (“gBDLD”) was cloned into the bacterial expression vector pET-28a containing an N-terminal His-Tag with thrombin cleavage site and kanamycin resistance. (Commercially available from Novagen, San Diego, Calif.) gBDLD production was induced by the addition of 1 mM isopropyl-βD-thiogalactopyranoside (IPTG). E. coli Tuner strain containing pET-28a:gBDLD was grown at 37° C. in Luria-Bertani medium containing kanamycin (50 μg/mL) to an optical density at 600 nm of approximately 0.6. IPTG (1 mM) was added and the plates were incubated continuously for 4 h at 37° C. Cells were harvested by centrifugation at 4000 r/min for 10 min and pellets were resuspended in 1% Triton X-100/Ni-NTA buffer (300 mM NaCl/50 mM Tris-HCL pH 7.9) and lysed by 3×60 s bursts of sonication. The lysate was centrifuged at 15,000 r/min for 15 minutes at 4° C. The 8M urea/Ni-NTA fraction was then poured into a chromatography column containing nickel-nitriloacetic acid agarose (Ni-NTA) beads at 4° C. and allowed to flow through. […] Fractions containing protein were determined by measuring the absorbance of each fraction at 214 nm. Fractions that corresponded to absorption peaks were analyzed by sodium dodecyl sulfate polyacrylamide electrophoresis (SDS-PAGE) to determine the size of the protein. […]

Row | Molecule | kinetics of gBDLD binding to human fibroblasts ([1]; 4° C., ELISA for his-tag) | concentration at which gBDLD binding to fibroblast monolayers reached saturation ([1]; 60 minutes, after BSA block) | IC50 for HCMV neutralization (HCMV-GFP) | IC50 (HCMV-GFP; read-out: IC50 for HCMV neutralization) | HCMV fusion (dye transfer) and gene expression (diI-labeled HCMV) | interaction with β1 integrin (pull down, Western blot) (β1 integrin) | interaction with β3 integrin (pull down, Western blot) (β3 integrin) | reorganization of the cytoskeleton (NHDF cells) | Solubility [2]
1 | gBDLD: amino acids 57-146 of HCMV AD 169 glycoprotein B disintegrin-like domain, His-tagged, expressed in E. coli (protein, left off: small tags and cut ends, amino acids 57-146 of HCMV AD 169 glycoprotein B disintegrin-like domain, His-tagged, expressed in E. coli) VTSSEAVSHRANETIYNTTLKYGDVVGVNTTKYPYRVCSMAQGTDLIRFERNIICTSMKPINEDLDEGIMVVYKRNIVAHTFKVRVYQKV | rapid kinetics | 12.5 µg/mL | 20.5 µg/mL | 1960 nM | complete block | interacts | does not interact | triggered a dramatic reorganization of the cytoskeleton | approximately 1 mg/mL
2 | EGF: known cytoskeletal reorganizer (protein, UniProt P01133 23-1207, looked up, Pro-epidermal growth factor, known cytoskeletal reorganizer) Pro-epidermal growth factor: PQHWSCPEGTLAGNGNSTCVGPAPFLIFSHGNSIFRIDTEGTNYEQLVVDAGVSVIMDFHYNEKRIYWVDLERQLLQRVFLNGSRQERVCNIEKNVSGMAINWINEEVIWSNQQEGIITVTDMKGNNSHILLSALKYPANVAVDPVERFIFWSSEVAGSLYRADLDGVGVKALLETSEKITAVSLDVLDKRLFWIQYNREGSNSLICSCDYDGGSVHISKHPTQHNLFAMSLFGDRIFYSTWKMKTIWIANKHTGKDMVRINLHSSFVPLGELKVVHPLAQPKAEDDTWEPEQKLCKLRKGNCSSTVCGQDLQSHLCMCAEGYALSRDRKYCEDVNECAFWNHGCTLGCKNTPGSYYCTCPVGFVLLPDGKRCHQLVSCPRNVSECSHDCVLTSEGPLCFCPEGSVLERDGKTCSGCSSPDNGGCSQLCVPLSPVSWECDCFPGYDLQLDEKSCAASGPQPFLLFANSQDIRHMHFDGTDYGTLLSQQMGMVYALDHDPVENKIYFAHTALKWIERANMDGSQRERLIEEGVDVPEGLAVDWIGRRFYWTDRGKSLIGRSDLNGKRSKIITKENISQPRGIAVHPMAKRLFWTDTGINPRIESSSLQGLGRLVIASSDLIWPSGITIDFLTDKLYWCDAKQSVIEMANLDGSKRRRLTQNDVGHPFAVAVFEDYVWFSDWAMPSVMRVNKRTGKDRVRLQGSMLKPSSLVVVHPLAKPGADPCLYQNGGCEHICKKRLGTAWCSCREGFMKASDGKTCLALDGHQLLAGGEVDLKNQVTPLDILSKTRVSEDNITESQHMLVAEIMVSDQDDCAPVGCSMYARCISEGEDATCQCLKGFAGDGKLCSDIDECEMGVPVCPPASSKCINTEGGYVCRCSEGYQGDGIHCLDIDECQLGEHSCGENASCTNTEGGYTCMCAGRLSEPGLICPDSTPPPHLREDDHHYSVRNSDSECPLSHDGYCLHDGVCMYIEALDKYACNCVVGYIGERCQYRDLKWWELRHAGHGQQQKVIVVAVCVVVLVMLLLLSLWGAHYYRTQKLLSKNPKNPYEESSRDVRSRRPADTEDGMSSCPQPWFVVIKEHQDLKNGGQPVAGEDGQAADGSMQPTSWRQEPQLCGMGTEQGCWIPVSSDKGSCPQVMERSFHMPSYGTQTLEGGVEKPHSLLSANPLWQQRALDPPHQMELTQ |  |  |  |  |  |  |  | triggered a dramatic reorganization of the cytoskeleton | 
